Measured values published in patent US20260365696A1, “INHIBITORS OF PTP1B / NCK1 INTERACTION AND METHODS OF MAKING AND USING SAME” (Radella Pharmaceuticals LLC, priority 2023, published 2026).

T1: NCK1 SH3-2 domain (human)
T1 chain: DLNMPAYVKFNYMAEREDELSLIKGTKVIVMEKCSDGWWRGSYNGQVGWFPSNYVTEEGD


Molecular target: T1, NCK1 SH3-2 domain
Experiment: ITC

| Kd [µM] | Binder |
| --- | --- |
| < 300 | Ac-PPRPPYR-NH2 [MH122] |
| < 300 | Ac-PPRPPNR-NH2 [MH053] |
| < 300 | Ac-PPRPPPR-NH2 [MH107] |
| < 300 | Ac-PPRPPLR-NH2 [MH102] |
| < 300 | Ac-PPRPPRR-NH2 [MH048] |
| < 300 | Ac-PPRPPIR-NH2 [MH098] |
| < 300 | Ac-PPRPPER-NH2 [MH051] |

Molecular target: T1, NCK1 SH3-2 domain
Experiment: ITC
Remark: another data set of the same source

| Kd [µM] | Binder |
| --- | --- |
| < 300 | Ac-PPRPPKRS-NH2 [MH152] |
| < 300 | Ac-PPRPPKRH-NH2 [MH146] |
| < 300 | Ac-PPRPPKRL-NH2 [MH147] |
| < 300 | Ac-PPRPPKRD-NH2 [MH141] |
| < 300 | Ac-PPRPPKRC-NH2 [MH142] |

Molecular target: T1, NCK1 SH3-2 domain
Experiment: ITC
Remark: another data set of the same source

| Kd [µM] | Binder |
| --- | --- |
| < 300 | Ac-PPYPPKR-NH2 [MH120] |
| < 300 | Ac-PPKPPKR-NH2 [MH055] |
| < 300 | Ac-PPNPPKR-NH2 [MH060] |
| < 300 | Ac-PPIPPKR-NH2 [MH096] |
| < 600 | Ac-PPWPPKR-NH2 [MH056] |
| < 300 | Ac-PPHPPKR-NH2 [MH057] |
| < 300 | Ac-PPTPPKR-NH2 [MH114] |
| < 300 | Ac-PPVPPKR-NH2 [MH124] |
| < 300 | Ac-PPFPPKR-NH2 [MH066] |
| < 300 | Ac-PPPPPKR-NH2 [MH106] |
| < 300 | Ac-PPEPPKR-NH2 [MH058] |
| < 300 | Ac-PPLPPKR-NH2 [MH100] |
| < 300 | Ac-PPDPPKR-NH2 [MH084] |
| < 300 | Ac-PPSPPKR-NH2 [MH059] |
| > 600 | Ac-PPGPPKR-NH2 [MH092] |
| < 300 | Ac-PPMPPKR-NH2 [MH110] |
| < 300 | Ac-PPQPPKR-NH2 [MH087] |
| < 300 | Ac-PPCPPKR-NH2 [MH061] |
